Test results from patent US20250043302A1, “MUTATED HYDROXYPHENYLPYRUVATE DIOXYGENASE POLYPEPTIDE, AND CODING GENE AND USE THEREOF” (BEIJING DABEINONG BIOTECHNOLOGY CO., LTD., priority 2021, published 2025).

Key:
Type in all cases: in vivo
[1] = test system: Arabidopsis thaliana T1 plants; experiment: Topramezone tolerance of transgenic Arabidopsis thaliana T1 plants (spray, bleached leaf area grade, damage score); details: Table 10; for Classification and statistics of the grade of pesticide damage Grade 0: number of plants at grade 0; for Classification and statistics of the grade of pesticide damage Grade 1: number of plants at grade 1; for Classification and statistics of the grade of pesticide damage Grade 2: number of plants at grade 2; for Classification and statistics of the grade of pesticide damage Grade 3: number of plants at grade 3; for Scores: pesticide damage score
Method in brief: (§1)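 Damage was assessed by bleaching grade (0 none; 1 <50%; 2 >50%; 3 100% of leaf area) one week after spraying. Sprays on 18-day-old T1 and wild-type plants used field-rate multiples: topramezone 25–200, isoxaflutole 35–280, mesotrione 52.5–420 g ai/ha.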

[2] = test system: Arabidopsis thaliana T1 plants; experiment: Isoxaflutole tolerance of transgenic Arabidopsis thaliana T1 plants (spray, bleached leaf area grade, damage score); details: Table 11; for Classification and statistics of the grade of pesticide damage Grade 0: number of plants at grade 0; for Classification and statistics of the grade of pesticide damage Grade 1: number of plants at grade 1; for Classification and statistics of the grade of pesticide damage Grade 2: number of plants at grade 2; for Classification and statistics of the grade of pesticide damage Grade 3: number of plants at grade 3; for Scores: pesticide damage score;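 as to Scores: Weighted damage index from 0 to 100 where higher means more damage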
Method in brief: as §1

[3] = test system: Arabidopsis thaliana T1 plants; experiment: Mesotrione tolerance of transgenic Arabidopsis thaliana T1 plants (spray, bleached leaf area grade, damage score); set-up: Scores: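 damage score 0-100 computed as Σ(N×S)/(T×M)×100 over grades 0-3 with higher meaning more damage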; details: Table 12; for Classification and statistics of the grade of pesticide damage Grade 0: number of plants at grade 0; for Classification and statistics of the grade of pesticide damage Grade 1: number of plants at grade 1; for Classification and statistics of the grade of pesticide damage Grade 2: number of plants at grade 2; for Classification and statistics of the grade of pesticide damage Grade 3: number of plants at grade 3; for Scores: pesticide damage score
Method in brief: as §1

B1: HPPDm-2-02: nucleotide sequence encoding Avena sativa HPPD with A111T+F372A+F383W; vector DBN11783 (nucleic acid)
DNA: ATGCCACCTACTCCAGCTACAGCTACTGGTGCTGCTGCTGCTGCCGTTACTCCTGAGCACGCTGCCAGGTCATTCCCCAGGGTGGTTCGCGTGAACCCCAGATCTGATAGGTTCCCAGTTCTGAGCTTCCACCATGTTGAGCTGTGGTGCGCTGATGCTGCTTCTGCTGCTGGCAGGTTCTCTTTCGCTCTTGGTGCTCCACTCGCTGCTAGATCTGATCTGTCTACAGGAAATAGCGCTCATGCCTCACTCCTGCTTCGCTCAGGTGCTTTGGCCTTCCTCTTCACCGCTCCATATGCTCCCCCACCTCAGGAGGCTGCTACTGCTGCTACTACAGCCTCCATTCCAAGCTTCTCAGCTGATGCCGCTAGAACCTTCGCTGCTGCTCATGGACTTGCCGTGAGGTCTGTTGGTGTTCGCGTGGCTGATGCTGCTGAGGCTTTCAGAGTTTCCGTTGCCGGCGGAGCTAGGCCAGCTTTCGCTCCTGCTGATTTGGGACATGGTTTCGGCCTGGCTGAGGTTGAGCTTTACGGTGACGTGGTTCTCCGCTTCGTGTCTTACCCAGATGAGACTGACCTGCCTTTCCTTCCCGGCTTCGAGAGAGTTTCCTCTCCTGGTGCCGTGGATTACGGCCTGACAAGGTTCGACCACGTGGTTGGAAACGTTCCCGAGATGGCTCCAGTGATCGATTACATGAAGGGCTTCCTTGGATTCCATGAGTTCGCCGAGTTCACTGCTGAGGACGTGGGAACCACTGAGTCCGGTTTGAACTCTGTGGTTCTCGCCAACAATTCTGAGGCTGTTTTGCTCCCTCTGAATGAGCCTGTGCATGGAACCAAGAGGAGAAGCCAGATTCAAACTTACCTGGAGTACCACGGTGGCCCTGGAGTTCAGCATATCGCCCTTGCTTCTAATGATGTGTTGCGCACACTCAGAGAGATGCGCGCCAGAACCCCCATGGGAGGTTTCGAGTTCATGGCCCCACCACAGGCTAAGTACTACGAGGGCGTTAGAAGGATTGCTGGAGACGTGTTGAGCGAGGAGCAGATCAAGGAGTGCCAAGAGCTGGGTGTTCTTGTGGATAGGGATGACCAGGGCGTTCTGCTTCAAATTGCCACTAAGCCAGTGGGCGACCGCCCTACATTCTGGCTTGAGATGATTCAAAGAATCGGCTGCATGGAGAAGGATGAGGTTGGACAGGAGTACCAAAAGGGCGGATGCGGTGGCTTCGGAAAGGGTAACTTCAGCGAGTTGTTCAAGTCAATCGAGGACTACGAGAAGAGCCTCGAGGTGAAGCAGTCAGTGGTTGCCCAAAAGTCCTGA
modifications: HPPDm-2-02 Nucleotide Sequence
notes: vector DBN11783
- Resistance evaluation ([1]; topramezone 100 g ai/ha (4×)): Highly resistant
- Classification and statistics of the grade of pesticide damage Grade 0 ([1]; topramezone 100 g ai/ha (4×)): 16
- Classification and statistics of the grade of pesticide damage Grade 1 ([1]; topramezone 100 g ai/ha (4×)): 0
- Classification and statistics of the grade of pesticide damage Grade 2 ([1]; topramezone 100 g ai/ha (4×)): 0
- Classification and statistics of the grade of pesticide damage Grade 3 ([1]; topramezone 100 g ai/ha (4×)): 0
- Scores ([1]; topramezone 100 g ai/ha (4×)): 0
- Resistance evaluation ([1]; topramezone 200 g ai/ha (8×)): Highly resistant
- Classification and statistics of the grade of pesticide damage Grade 0 ([1]; topramezone 200 g ai/ha (8×)): 16
- Classification and statistics of the grade of pesticide damage Grade 1 ([1]; topramezone 200 g ai/ha (8×)): 0
- Classification and statistics of the grade of pesticide damage Grade 2 ([1]; topramezone 200 g ai/ha (8×)): 0
- Classification and statistics of the grade of pesticide damage Grade 3 ([1]; topramezone 200 g ai/ha (8×)): 0
- Scores ([1]; topramezone 200 g ai/ha (8×)): 0
- Resistance evaluation ([2]; isoxaflutole 140 g ai/ha (2×)): Highly resistant
- Classification and statistics of the grade of pesticide damage Grade 0 ([2]; isoxaflutole 140 g ai/ha (2×)): 16
- Classification and statistics of the grade of pesticide damage Grade 1 ([2]; isoxaflutole 140 g ai/ha (2×)): 0
- Classification and statistics of the grade of pesticide damage Grade 2 ([2]; isoxaflutole 140 g ai/ha (2×)): 0
- Classification and statistics of the grade of pesticide damage Grade 3 ([2]; isoxaflutole 140 g ai/ha (2×)): 0
- Scores ([2]; isoxaflutole 140 g ai/ha (2×)): 0
- Resistance evaluation ([2]; isoxaflutole 280 g ai/ha (4×)): Highly resistant
- Classification and statistics of the grade of pesticide damage Grade 0 ([2]; isoxaflutole 280 g ai/ha (4×)): 12
- Classification and statistics of the grade of pesticide damage Grade 1 ([2]; isoxaflutole 280 g ai/ha (4×)): 3
- Classification and statistics of the grade of pesticide damage Grade 2 ([2]; isoxaflutole 280 g ai/ha (4×)): 1
- Classification and statistics of the grade of pesticide damage Grade 3 ([2]; isoxaflutole 280 g ai/ha (4×)): 0
- Scores ([2]; isoxaflutole 280 g ai/ha (4×)): 10
- Resistance evaluation ([3]; mesotrione 210 g ai/ha (2×)): Highly resistant
- Classification and statistics of the grade of pesticide damage Grade 0 ([3]; mesotrione 210 g ai/ha (2×)): 16
- Classification and statistics of the grade of pesticide damage Grade 1 ([3]; mesotrione 210 g ai/ha (2×)): 0
- Classification and statistics of the grade of pesticide damage Grade 2 ([3]; mesotrione 210 g ai/ha (2×)): 0
- Classification and statistics of the grade of pesticide damage Grade 3 ([3]; mesotrione 210 g ai/ha (2×)): 0
- Scores ([3]; mesotrione 210 g ai/ha (2×)): 0
- Resistance evaluation ([3]; mesotrione 420 g ai/ha (4×)): Highly resistant
- Classification and statistics of the grade of pesticide damage Grade 0 ([3]; mesotrione 420 g ai/ha (4×)): 14
- Classification and statistics of the grade of pesticide damage Grade 1 ([3]; mesotrione 420 g ai/ha (4×)): 2
- Classification and statistics of the grade of pesticide damage Grade 2 ([3]; mesotrione 420 g ai/ha (4×)): 0
- Classification and statistics of the grade of pesticide damage Grade 3 ([3]; mesotrione 420 g ai/ha (4×)): 0
- Scores ([3]; mesotrione 420 g ai/ha (4×)): 4
